From the RNAGym collection of RNA variant scans (doi:10.7554/elife.80360) come the findings set out here.

First the molecules themselves.
B1: HDV Ribozyme (parent)
chain: GGCCGGCAUGGUCCCAGCCUCCUCGCUGGCGCCGGCUGGGCAACAUUCCGAGGGGACCGUCCCCUCGGUAAUGGCGAAUGGGACCCA

The variants in this data set derive from B1. Nature of the data set: self-cleavage, relative activity (ratio to wild type); higher = more cleavage; co-transcriptional.
For GGCCGGCAUGGACCCAGCCUCCUCGCUGGCGCCGGGUGGGCAACAUUCCGAGGGGACCGUCCCCUCGGUAAUGGCGAAUGGGACCCA [U12A C36G], the self-cleavage worked out at 0.0707.
Consider GGCCGGCAUGGACCCAGCCUCCUCGCUGGCGCCGGCUGGGCAACAUUCCGAGGGGACCGUCCCCUUGGUAAUGGCGAAUGGGACCCA [U12A C66U], for which the self-cleavage is 0.317.
GGCCGGCAUGGACCCAGCCUCCUCGCUGGCGCCGGCUGGGCAAGAUUCCGAGGGGACCGUCCCCUCGGUAAUGGCGAAUGGGACCCA [U12A C44G]: the self-cleavage was found to be 0.166.
The value for GGCCGGCAUGGACCCAGCCUCCUCGCUGGCGCCGGCUGGGAAACAUUCCGAGGGGACCGUCCCCUCGGUAAUGGCGAAUGGGACCCA [U12A C41A] was 0.437; that for GGCCGGCAUGGACCCAGCCUCCUCGCUGGCGCCGGCUGGGCAACAUUCCGAGGGGACCGUCCGCUCGGUAAUGGCGAAUGGGACCCA [U12A C63G] was 0.293; that for GGCCGGCAUGGACCCAGCCUCCUCGCUGGCGCCGGCUGGGCAACAUUCCGAGGGGACUGUCCCCUCGGUAAUGGCGAAUGGGACCCA [U12A C58U] was 0.302.
Under GGCCGGCAUGGAGCCAGCCUCCUCGCUGGCGCCGGCUGGGCAACAUUCCGAGGGGACCGUCCCCUCGGUAAUGGCGAAUGGGACCCA [U12A C13G] stands 0; under GGCCGGCAUGGAACCAGCCUCCUCGCUGGCGCCGGCUGGGCAACAUUCCGAGGGGACCGUCCCCUCGGUAAUGGCGAAUGGGACCCA [U12A C13A], 0.0378; under GGCCGGCAUGGACCCAGCCUCCUCGCUGGCACCGGCUGGGCAACAUUCCGAGGGGACCGUCCCCUCGGUAAUGGCGAAUGGGACCCA [U12A G31A], 0.125.
Take GGCCGGCAUGGACCCAGCCUCCUCGCUGGCUCCGGCUGGGCAACAUUCCGAGGGGACCGUCCCCUCGGUAAUGGCGAAUGGGACCCA [U12A G31U]: the self-cleavage was determined as 0.0811.
For the variant GGCCGGCAUGGACCCAGCCUCCUCUCUGGCGCCGGCUGGGCAACAUUCCGAGGGGACCGUCCCCUCGGUAAUGGCGAAUGGGACCCA [U12A G25U], the self-cleavage was determined as 0.133.
As to GGCCGGCAUGGACCCAGCCUCCUCCCUGGCGCCGGCUGGGCAACAUUCCGAGGGGACCGUCCCCUCGGUAAUGGCGAAUGGGACCCA [U12A G25C], the self-cleavage turned out to be 0.17.
Take GGCCGGCAUGGACCCAGCCUCCUCGCUGGCGCCGGCUGGGCAACAUUCCGAGGGGACCGUCCCCUCGGUAAUGGCGACUGGGACCCA [U12A A78C]: the self-cleavage was 0.123.
Take GGCCGGCAUGGACCCAGCCUCCUCGCUGGCGCCGGCUGGGCAACAUUCCGAGGGGACCGUCCCCUCGGUAAUGGCGAGUGGGACCCA [U12A A78G]: the self-cleavage was found to be 0.237.
The value for GGCCGGCAUGGACCCAGCCUCCUCGCUGGCGCCGGCUGGGCAACAUUCCCAGGGGACCGUCCCCUCGGUAAUGGCGAAUGGGACCCA [U12A G50C] was 0.332; that for GGCCGGCAUGGACCCAGCCUCCUCGCUGGCGCCGGCUGCGCAACAUUCCGAGGGGACCGUCCCCUCGGUAAUGGCGAAUGGGACCCA [U12A G39C] was 0.0594; that for GGCCGGCAUGGACCCAGCCUCCUCGCUGGCGCCGGCUGUGCAACAUUCCGAGGGGACCGUCCCCUCGGUAAUGGCGAAUGGGACCCA [U12A G39U] was 0.0489.
Under GGCCGGCAUGGACCCAGCCUCCUCGCUGGCGCCGCCUGGGCAACAUUCCGAGGGGACCGUCCCCUCGGUAAUGGCGAAUGGGACCCA [U12A G35C] stands 0.142; under GGCCGGCAUGGACCCAGCCUCCUCGCUGGCGCCGACUGGGCAACAUUCCGAGGGGACCGUCCCCUCGGUAAUGGCGAAUGGGACCCA [U12A G35A], 0.0875.
For GGCCGGCAUGGACCCAGCCUCCUCGCUGGCGCCGUCUGGGCAACAUUCCGAGGGGACCGUCCCCUCGGUAAUGGCGAAUGGGACCCA [U12A G35U], the self-cleavage turned out to be 0.0225.
For GGCCGGCAUGGACCCAGCCUCCUCGCUGGCGCCGGCUGGGCAACAUUCCGAGGGGACCGUCCCCUCGGUAUUGGCGAAUGGGACCCA [U12A A71U], the self-cleavage worked out at 0.262.
Consider GGCCGGCAUGGACCCAGCCUCCUCGCUGGCGCCGGCUGGGCAACAUUCCGAGGGGACCGUCCCCUCGGUAAUGGCGAAUGGGACCAA [U12A C86A], for which the self-cleavage was 0.623.
The value for GGCCGGCAUGGACCCAGCCUCCUCGCUGGCGCCGGCUGGGCAACAUUCCGAGGGGACCGUCCCCUCGGUAAUGGCGUAUGGGACCCA [U12A A77U] was 0; that for GGCCGGCAUGGACCCAGCCUCCUCGCUGGCGCCGGCUGGGCAACAUUCCGAGGGGACCGUCCCCUCGGUAAUGGCGGAUGGGACCCA [U12A A77G] was 0.151.
In the case of GGCCGGCAUGGACCCAGCCUCCUCGCUGGCGCCGGCUGGGCAACAUUCCGAGGGGACCGUCCCCUCGGUAAUGGCGCAUGGGACCCA [U12A A77C], the self-cleavage amounted to 0.0755.
With GGCCGGCAUGGACCCAGCCUCCUCGCUGGCGCCGGCUGGGCAACAUUCCGAGGGGACCGUCCCCUCGGUAAUGGCGAAUGGGAGCCA [U12A C84G], the self-cleavage was 0.554.
Regarding GGCCGGCAUGGACCCAGCCUCCUCGCUGGCGCCGGCUGGGCAACAUUCCGAGGGGACCGUCCCCUCGGUAAUGGCGAAUGGGAUCCA [U12A C84U], the self-cleavage is 0.519.
GGCCGGCAUGGACCCAGCCUCCUCGCUGGCGCCUGCUGGGCAACAUUCCGAGGGGACCGUCCCCUCGGUAAUGGCGAAUGGGACCCA [U12A G34U]: the self-cleavage is 0.142.
Take GGCCGGCAUGGACCCAGCCUCCUCGCUGGCGCCGGCUGGGCAACAUUCCGAGGGGACCGUCCCCUCGGUAAUGGCGAAUGGGACACA [U12A C85A]: the self-cleavage worked out at 0.383.
With GGCCGGCAUGGACCCAGCCUCCUCGCUGGCGCCGGCUGGGCAACAUUCCGAGGGGACCGUCCCCUCGGUAAUGGCGAAUGGGACGCA [U12A C85G], the self-cleavage is 0.208.
Under GGCCGGCAUGGACCCAGCCUCCUCGCUGGCGCCGGCUGGGCAACAUUCCGAGGGGACCGUCCCCUCGGUAAUGGCGAAUGGGACUCA [U12A C85U] stands 0.481.
Consider GGCCGGCAUGGACCCAGCCUCCUCGCUGGCGCCGGCUGGGCAACAUUCCGACGGGACCGUCCCCUCGGUAAUGGCGAAUGGGACCCA [U12A G52C], for which the self-cleavage is 0.453.
